Legend:
[1] = target: Human CK1δ catalytic domain (CK1, residues 1–317), wild type (human) (UniProt P48730)
CK1 D132A = test: 32P-ATP time course kinase assay, CK1 D132A compared with WT; type: biochemical, human; conditions: 200 μM peptide, 30°C, pH 7.5, four independent assays
Protocol: (§1) PER FASP region peptides were synthesized and purified to 95% or higher (SABio). Two independent reaction mixtures of 50 μL containing 200 μM of the FASP or in reaction buffer (25 mM Tris (pH 7.5), 7.5 mM MgCl2, 1 mM DTT, and 0.1 mg/mL BSA) were preincubated for 5 min with or without 20 nM CK1 (for primed FASP) or 200 nM CK1 (for unprimed FASP) and the reaction was started by addition of 750 μM of UltraPure ATP (Promega) containing 1–2 μCi of ɣ-^32p ATP (PerkinElmer). After incubation of the reaction mix at 30°C, an 8-μL aliquot of the reaction mix was transferred to P81 phosphocellulose paper (Reaction Biology Corp) at the indicated timepoints. […] The air-dried P81 paper was counted for Pi incorporation using a scintillation counter (PerkinElmer) by Cherenkov counting. […]
To map binding sites on the surface of CK1, we employed FTMap, a fast computational approach that uses small organic probes to identify consensus sites (or pockets) that are likely to bind drug -like molecules. We submitted a series of conformations representative of the most populated MSM states to the FTMap server (https://ftmap.bu.edu/) and analyzed the results with FTProd. […] Tables S7 and S8 describe the consensus sites (CS) detected for WT and tau conformations, respectively. When a site is detected (colorful cells), it contains a score based on […]

CK1 [2] = test: 32P-ATP time course kinase assay, PER3 FASP-like peptides; type: biochemical, human; conditions: 32P-ATP time course, 200 μM peptide, 200 nM CK1 (unprimed), 750 μM ATP, 30°C, pH 7.5; four independent assays; Fig. S15E, F
Protocol: as §1
To map binding sites on the surface of CK1, we employed FTMap, a fast computational approach that uses small organic probes to identify consensus sites (or pockets) that are likely to bind drug -like molecules. We submitted a series of conformations representative of the most populated MSM states to the FTMap server (https://ftmap.bu.edu/) and analyzed the results with FTProd. […] Tables S7 and S8 describe the consensus sites (CS) detected for WT and tau conformations, respectively. When a site is detected (colorful cells), it contains a score based on (1 picture or pasted object on this page, not shown here)

CK1 [3] = conditions: cited from earlier work
Description: Here, we further tested our model by introducing a lysine at the −3 position and a glutamate at the −1 position of PER3 FASP-like peptides (A610K/L612E) to mimic the PER2 FASP priming region and rescue priming activity. These mutant peptides were used in a ^32P-ATP time course kinase assay ...

UniProt P48730, sequence (P48730 other isoform, or with tags, fused parts or gaps mutant): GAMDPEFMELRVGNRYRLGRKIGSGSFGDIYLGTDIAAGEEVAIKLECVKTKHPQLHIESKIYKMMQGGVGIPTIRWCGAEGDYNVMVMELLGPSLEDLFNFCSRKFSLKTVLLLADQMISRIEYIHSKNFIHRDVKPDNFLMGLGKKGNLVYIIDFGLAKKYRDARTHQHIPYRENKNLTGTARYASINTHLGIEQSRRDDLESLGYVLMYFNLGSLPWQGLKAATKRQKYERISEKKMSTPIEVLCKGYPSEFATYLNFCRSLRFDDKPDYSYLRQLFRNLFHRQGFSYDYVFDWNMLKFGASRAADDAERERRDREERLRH

Q: With “human PER2 FASP peptide, “priming only” (S665A)” as the molecule, how does the apparent Michaelis-Menten constant (KMapp) of CK1 priming activity, ADP-Glo substrate titration (200 nM CK1, 100 μM ATP, room temperature, 1 h) [1] read?
A: 210 µM

Q: For “RKKKTEVSAHLSSLTLP GKAESVVSLTSQ [unprimed FASP peptide, synthetic mouse PER2 FASP peptide, unprimed]”, which “activity of CK1 D132A compared with CK1 WT on unprimed FASP (in words)” value (CK1 D132A; 200 nM CK1, 750 μM ATP, Fig. S15B) is on record?
A: dramatic loss in activity

Q: With “human PER2 FASP peptide, alanine at position −1 (E661) in the “priming only” (S665A) background” as the molecule, how does the fold change of the apparent Michaelis-Menten constant (KMapp) against the WT “priming only” substrate, ADP-Glo substrate titration [1] read?
A: 10 fold

Q: With “human PER2 FASP peptide, alanine at position −3 (K659) in the “priming only” (S665A) background” as the molecule, how does the fold change of the apparent Michaelis-Menten constant (KMapp) against the WT “priming only” substrate, ADP-Glo substrate titration [1] read?
A: 10 fold

Q: Which “activity of CK1 D132A compared with CK1 WT on primed FASP (in words)” value (CK1 D132A; 20 nM CK1, 750 μM ATP, Fig. S15C) does the source give for “RKKKTEVSAHLSSLTL PGKAEpSVVSLTSQ [primed FASP peptide, synthetic mouse PER2 FASP peptide, pS659 primed]” here?
A: more modest effect

Q: For “RKKKPSTDIEGGAAR TLSTKAESVAAGIAQ [A610K/L612E (priming only), PER3 KAE peptide with serine residues downstream of the priming site mutated to alanine]”, which “CK1 activity in presence of −3K and −1E (in words)” value (CK1 [2]) is on record?
A: increase in CK1 activity

Q: Which “CK1 activity in presence of −3K and −1E (in words)” value (CK1 [2]) does the source give for “RKKKPSTDIEGGAART LSTKAESVASGISQ [A610K/L612E, PER3 FASP-like peptide with −3K and −1E (A610K/L612E)]” here?
A: increase in CK1 activity

B1: PER3: PER homolog within the circadian system (protein, UniProt P56645 1-1201, looked up)
Period circadian protein …: MPRGEAPGPGRRGAKDEALGEESGERWSPEFHLQRKLADSSHSEQQDRNRVSEELIMVVQEMKKYFPSERRNKPSTLDALNYALRCVHSVQANSEFFQILSQNGAPQADVSMYSLEELATIASEHTSKNTDTFVAVFSFLSGRLVHISEQAALILNRKKDVLASSHFVDLLAPQDMRVFYAHTARAQLPFWNNWTQRAARYECAPVKPFFCRIRGGEDRKQEKCHSPFRIIPYLIHVHHPAQPELESEPCCLTVVEKIHSGYEAPRIPVNKRIFTTTHTPGCVFLEVDEKAVPLLGYLPQDLIGTSILSYLHPEDRSLMVAIHQKVLKYAGHPPFEHSPIRFCTQNGDYIILDSSWSSFVNPWSRKISFIIGRHKVRTSPLNEDVFATKIKKMNDNDKDITELQEQIYKLLLQPVHVSVSSGYGSLGSSGSQEQLVSIASSSEASGHRVEETKAEQMTLQQVYASVNKIKNLGQQLYIESMTKSSFKPVTGTRTEPNGGGECKTFTSFHQTLKNNSVYTEPCEDLRNDEHSPSYQQINCIDSVIRYLKSYNIPALKRKCISCTNTTSSSSEEDKQNHKADDVQALQAGLQIPAIPKSEMPTNGRSIDTGGGAPQILSTAMLSLGSGISQCGYSSTIVHVPPPETARDATLFCEPWTLNMQPAPLTSEEFKHVGLTAAVLSAHTQKEEQNYVDKFREKILSSPYSSYLQQESRSKAKYSYFQGDSTSKQTRSAGCRKGKHKRKKLPEPPDSSSSNTGSGPRRGAHQNAQPCCPSAASSPHTSSPTFPPAAMVPSQAPYLVPAFPLPAATSPGREYAAPGTAPEGLHGLPLSEGLQPYPAFPFPYLDTFMTVFLPDPPVCPLLSPSFLPCPFLGATASSAISPSMSSAMSPTLDPPPSVTSQRREEEKWEAQSEGHPFITSRSSSPLQLNLLQEEMPRPSESPDQMRRNTCPQTEYCVTGNNGSESSPATTGALSTGSPPRENPSHPTASALSTGSPPMKNPSHPTASALSTGSPPMKNPSHPTASTLSMGLPPSRTPSHPTATVLSTGSPPSESPSRTGSAASGSSDSSIYLTSSVYSSKISQNGQQSQDVQKKETFPNVAEEPIWRMIRQTPERILMTYQVPERVKEVVLKEDLEKLESMRQQQPQFSHGQKEELAKVYNWIQSQTVTQEIDIQACVTCENEDSADGAATSCGQVLVEDSC
Q: With B1 as the molecule, how does the “CK1 substrate status (in words)” value (CK1 [3]) read?
A: does not appear to be a substrate of the kinase

Reference: PMC12709424, “Markovian state models uncover casein kinase 1 dynamics that govern circadian period” (Biophysical Journal, 2025)
